The series addresses T1, Itk LKD enzyme (Mus musculus, UniProt Q03526).
T1 construct: linker kinase domain (Itk LKD); made in house; host or cells: Sf9 insect cells (baculovirus), co-infected 1:1 with Lck baculovirus
T1 sequence (Q03526 344-625 limits assumed): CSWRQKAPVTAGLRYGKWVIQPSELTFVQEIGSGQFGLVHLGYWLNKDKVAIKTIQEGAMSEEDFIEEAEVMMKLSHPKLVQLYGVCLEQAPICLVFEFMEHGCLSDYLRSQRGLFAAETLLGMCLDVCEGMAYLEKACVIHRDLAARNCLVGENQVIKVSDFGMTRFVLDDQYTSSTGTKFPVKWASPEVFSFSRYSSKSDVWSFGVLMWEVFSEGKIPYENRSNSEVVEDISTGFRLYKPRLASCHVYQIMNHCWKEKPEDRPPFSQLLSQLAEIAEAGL
Briefly: Quantitative kinase assay, Km determination for Peptide B and PLCγ1 SH2C-Peptide B fusion. Format: biochemical. From the text: 5(a) Construction of a PLCγ1 SH2C-Peptide B fusion protein was based on alignment of Y783 within the PLCγ1 linker and the Tyr of Peptide B. The 14 amino acids of Peptide B were used to replace the last 16 amino acids of PLCγ1 SH2C-Y783-. The Tyr that is phosphorylated in each substrate is boxed. A mutant construct is also shown that contains serine in place of the tyrosine of peptide B. This site was mutated to serine instead of phenylalanine due to solubility problems associated with the Tyr to Phe mutation. 5(b) FLAG-tagged Itk LKD enzyme (1 μM) was incubated with 20 μM of the PLCγ1 SH2C-Peptide B fusion protein (lane 4) or 20 μM of the PLCγ1 SH2C-Peptide B(YS) mutant protein (lane 5) in an in vitro kinase assay. Lanes 1-3 are Itk enzyme alone, PLCγ1 SH2C-Peptide B substrate alone and PLCγ1 SH2C-Peptide B(YS) substrate alone, respectively, that have each been subjected to the same in vitro kinase assay conditions. (c & d) FLAG-tagged Itk LKD enzyme was incubated with increasing amounts of biotinylated PLCγ1 SH2C-Peptide B 5(c) or biotinylated Peptide B alone 5(d) in an in vitro kinase assay. 5(e) Kinetic parameters describing phosphorylation of Peptide B and the PLCγ1 SH2C-Peptide B fusion protein by Itk. Data shown are the average of two independent experiments.
Kinase assays and Western Blotting—Itk Full-length (FL), linker kinase domain (Itk LKD), kinase domain (Itk KD), full-length Btk or full-length Tec were incubated with the indicated substrates in an in vitro kinase assay buffer (50 mM Hepes pH 7.0, 10 mM MgCl2, 1 mM DTT, 1 mg/ml BSA, 1 mM Pefabloc and 200 μM ATP) for one hour at RT. The samples were boiled, separated by SDS-PAGE and transferred onto a PVDF membrane. The membranes were then blotted with either phosphotyrosine specific antibodies (anti-pY783 for PLCγ1 or pY223 Btk antibody used to detect pY180 in Itk, pY187 in Tec and pY223 in Btk (18)), an anti-phosphotyrosine antibody (4G10 from Upstate), or an anti-FLAG antibody (Sigma) and developed by standard chemiluminescence (Pierce) methods. Quantitative kinase assays (25): Km determinations for Peptide B [(Aminohexanoyl biotin-EQEDEPEGIYGVLF-NH2) (Anaspec Inc.)] and the biotinylated PLCγ1 SH2C-Peptide B fusion were carried out by incubating purified Itk LKD enzyme in reaction buffer (50 mM Hepes pH 7.0, 10 mM MgCl2, 1 mM DTT, 1 mg/ml BSA, 1 mM Pefabloc SC (4-(2-aminoethyl)-benzenesulfonyl-fluoride) and 200 μM ATP) and 5 μCi [^32P] ATP (GE Healthcare) at room temperature. Peptide B concentration was varied between 0-400 μM and PLCγ1 SH2C-Peptide B fusion concentration was varied between 0-80 μM. The enzyme concentration used for kinetic analysis was 0.9 μM. Each assay was done in duplicate. […]

What is called Km is the substrate concentration at which the rate is half of its maximum.

B1: SH2-Peptide B fusion: PLCγ1 SH2C domain covalently linked to the amino terminus of Peptide B, biotinylated fusion protein (protein)
chain: QTNAHESKEWYHASLTRAQAEHMLMRVPRDGAFLVRKRNEPNSYAISFRAEGKIKHCRVQQEGQTVMLGNSEFDSLVDLISYYEKHPLYRKMKLRYPINEEALEKIGTAEPDFGAEQEDEPEGIYGVLF
modifications: left off: things letters cannot carry
notes: PLCγ1 SH2C domain covalently linked to the amino terminus of Peptide B, biotinylated fusion protein
With B1, under “compared to Peptide B alone”, the “better substrate (kcat/Km)” value is given as 7 fold; the “increase in substrate affinity” value was 15 fold; the “kcat value, change on attachment of PLCγ1 SH2C domain to Peptide B” value is “only changed to a small extent”. Also, the Km (phosphorylation by Itk LKD enzyme 0.9 μM, 200 μM ATP, room temperature) stood at 5.64 µM.

(Values after US20090010911A1, “METHODS AND COMPOSITIONS FOR AFFECTING CYCLOPHILIN A REGULATION OF KINASES IN MODULATING CELLULAR ACTIVITIES” (IOWA STATE UNIVERSITY RESEARCH FOUNDATION, INC., priority 2007, published 2009).)
